Source: article PMC9470594, “Paternal imprinting of dosage-effect defective1 contributes to seed weight xenia in maize”

B1: sus1 promoter probe (dsDNA)
DNA 1: CTGAACCGTTTTTCGGTTTCAGTTTTCTCTGCTGACTGAAGCTTC
DNA 2: GAAGCTTCAGTCAGCAGAGAAAACTGAAACCGAAAAACGGTTCAG
B2: vp1 promoter probe (dsDNA)
DNA 1: GTCCTTGAAACTGCAATCCAAATCTACGCAACCGTTTTGCATGCCACTGTTTGTA
DNA 2: TACAAACAGTGGCATGCAAAACGGTTGCGTAGATTTGGATTGCAGTTTCAAGGAC
B3: c1 promoter probe (dsDNA)
DNA 1: CATCATTCGATCAGTTTTCGTTCTGATGCAGTTTTCGATAAATGC
DNA 2: GCATTTATCGAAAACTGCATCAGAACGAAAACTGATCGAATGATG
B4: fl3 promoter probe (dsDNA)
DNA 1: TGTACAAATATTTCTACTGACAGTTTTTAAGAAACCACCTGTGGA
DNA 2: TCCACAGGTGGTTTCTTAAAAACTGTCAGTAGAAATATTTGTACA

target: DED1 (R2R3-MYB), GST fusion (Zea mays, UniProt A0A804M0V9 1-450); assay: EMSA; 5 mM Mg2+; EMSA: 50 ng DED1-GST, 6 ng probe in 20 uL 10 mM Tris pH 7.5, 50 mM KCl, 1 mM DTT, 2.5% glycerol, 5 mM MgCl2, 50 ug/uL (so in the source) poly(dI-dC), 0.05% NP-40, 25; settings: protein: recombinant; tags: GST (N-terminal, pGEX-4T-1); label: biotin 3' end on one strand; blunt
Sequence (A0A804M0V9 entry or part of it): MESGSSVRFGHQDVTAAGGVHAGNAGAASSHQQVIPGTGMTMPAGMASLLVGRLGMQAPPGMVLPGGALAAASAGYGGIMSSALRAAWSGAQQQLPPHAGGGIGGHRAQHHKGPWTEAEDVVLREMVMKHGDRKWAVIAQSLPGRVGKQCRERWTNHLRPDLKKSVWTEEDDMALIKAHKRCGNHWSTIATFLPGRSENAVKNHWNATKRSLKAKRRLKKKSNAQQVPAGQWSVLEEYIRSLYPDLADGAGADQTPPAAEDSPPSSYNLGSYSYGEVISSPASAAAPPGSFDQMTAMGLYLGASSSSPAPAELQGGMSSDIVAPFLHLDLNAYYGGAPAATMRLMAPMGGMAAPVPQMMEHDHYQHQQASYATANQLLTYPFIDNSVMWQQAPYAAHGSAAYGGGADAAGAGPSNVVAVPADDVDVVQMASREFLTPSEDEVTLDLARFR

Binding result, binds:
B1
B2
B3
B4
